Test results as given in patent publication US20060246046A1 (published 2006).

T1: factor XIIIa (human, UniProt P00488 39-732)
T1 sequence (looked up): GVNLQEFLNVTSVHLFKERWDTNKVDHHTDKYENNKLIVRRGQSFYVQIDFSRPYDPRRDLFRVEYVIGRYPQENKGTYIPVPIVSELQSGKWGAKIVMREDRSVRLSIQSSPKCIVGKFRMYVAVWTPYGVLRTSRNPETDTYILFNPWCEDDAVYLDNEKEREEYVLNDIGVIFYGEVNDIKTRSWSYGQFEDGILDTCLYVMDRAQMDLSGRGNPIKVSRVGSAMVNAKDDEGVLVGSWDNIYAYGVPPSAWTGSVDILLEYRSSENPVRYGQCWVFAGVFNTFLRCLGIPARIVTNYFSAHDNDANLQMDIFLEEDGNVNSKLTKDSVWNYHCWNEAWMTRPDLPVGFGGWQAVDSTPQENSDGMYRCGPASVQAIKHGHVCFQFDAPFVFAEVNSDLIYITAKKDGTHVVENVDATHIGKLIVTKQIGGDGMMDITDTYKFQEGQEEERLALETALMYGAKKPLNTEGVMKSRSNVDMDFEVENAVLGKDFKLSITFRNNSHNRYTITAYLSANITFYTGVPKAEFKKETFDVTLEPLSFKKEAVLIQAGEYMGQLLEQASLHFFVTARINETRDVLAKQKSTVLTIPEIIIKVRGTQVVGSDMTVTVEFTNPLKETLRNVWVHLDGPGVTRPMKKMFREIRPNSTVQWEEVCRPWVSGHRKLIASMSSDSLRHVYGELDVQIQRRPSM

B1: recombinant wild-type tridegin polypeptide (SEQ ID No. 1) from Escherichia coli (protein, not shown: small tags and cut ends)
chain: MKLLPCKEWHQGIPNPRCWCGADLECAQDQYCAFIPQCRPRSELIKPMDDIYQRPVEFPNLPLKPREE
B2: modified tridegin D50A (protein, not shown: small tags and cut ends)
chain: MKLLPCKEWHQGIPNPRCWCGADLECAQDQYCAFIPQCRPRSELIKPMDAIYQRPVEFPNLPLKPREE
B3: modified tridegin M48A (protein, not shown: small tags and cut ends)
chain: MKLLPCKEWHQGIPNPRCWCGADLECAQDQYCAFIPQCRPRSELIKPADDIYQRPVEFPNLPLKPREE
B4: modified tridegin R39A (protein, not shown: small tags and cut ends)
chain: MKLLPCKEWHQGIPNPRCWCGADLECAQDQYCAFIPQCAPRSELIKPMDDIYQRPVEFPNLPLKPREE
B5: modified tridegin I45A (protein, not shown: small tags and cut ends)
chain: MKLLPCKEWHQGIPNPRCWCGADLECAQDQYCAFIPQCRPRSELAKPMDDIYQRPVEFPNLPLKPREE
B6: modified tridegin F34A (protein, not shown: small tags and cut ends)
chain: MKLLPCKEWHQGIPNPRCWCGADLECAQDQYCAAIPQCRPRSELIKPMDDIYQRPVEFPNLPLKPREE
B7: modified tridegin F58A (protein, not shown: small tags and cut ends)
chain: MKLLPCKEWHQGIPNPRCWCGADLECAQDQYCAFIPQCRPRSELIKPMDDIYQRPVEAPNLPLKPREE
B8: modified tridegin D50A, P55L (protein, not shown: small tags and cut ends)
chain: MKLLPCKEWHQGIPNPRCWCGADLECAQDQYCAFIPQCRPRSELIKPMDAIYQRLVEFPNLPLKPREE

What follows are binders tested against T1, factor XIIIa (assay: cell-based or functional assay).

With B1 the IC50, Berichrom assay (factor XIIIa activity) was 2000 to 4000 nM.

Point of comparison: B5, Relative inhibitory effect (%) at 5.45 µM, wild type = 100% 115%. Against it:
- B1 — lower, 100%
- B2 — lower, 53%
- B3 — lower, 91%
- B4 — lower, 49%
- B6 — lower, 96%
- B7 — lower, 60%
- B8 — lower, 84%

Binder B1 has a Relative inhibitory effect (%) at 7.27 µM (reference) of 100%.

Biological target: T1, factor XIIIa
Experiment: cell-based or functional assay
Remark: another data set of the same source

Point of comparison: Ac-LLPCKEWHQGIPNPRCWCGA-NH2 (cysteine pairing not given here) [20 amino acid-long tridegin peptide SEQ ID NO.3], “Relative inhibitory effect (%) at 7.27 µM, recombinant tridegin = 100%” value 5.88%. Against it:
- Ac-IPNPRCWCGADLECAQDQYC-NH2 (cysteine pairing not given here) [20 amino acid-long tridegin peptide SEQ ID NO.8] — higher, 13.7%
- Ac-MKLLPCKEWHQGIPNPRCWC-NH2 (cysteine pairing not given here) [20 amino acid-long tridegin peptide SEQ ID NO.2] — lower, 0%
- Ac-QCRPRSELIKPMDDIYQRPV-NH2 [20 amino acid-long tridegin peptide SEQ ID NO.20] — higher, 11.1%
- Ac-NPRCWCGADLECAQDQYCAF-NH2 (cysteine pairing not given here) [20 amino acid-long tridegin peptide SEQ ID NO.9] — lower, 0%
- Ac-DLECAQDQYCAFIPQCRPRS-NH2 (cysteine pairing not given here) [20 amino acid-long tridegin peptide SEQ ID NO.13] — higher, 7.96%
- Ac-KEWHQGIPNPRCWCGADLEC-NH2 (cysteine pairing not given here) [20 amino acid-long tridegin peptide SEQ ID NO.5] — lower, 1.96%
- Ac-RCWCGADLECAQDQYCAFIP-NH2 (cysteine pairing not given here) [20 amino acid-long tridegin peptide SEQ ID NO.10] — the same, 5.88%
- Ac-YCAFEPQCRPRSELIKPMDD-NH2 (cysteine pairing not given here) [20 amino acid-long tridegin peptide SEQ ID NO.17] — higher, 12.3%
- Ac-GADLECAQDQYCAFIPQCRP-NH2 (cysteine pairing not given here) [20 amino acid-long tridegin peptide SEQ ID NO.12] — lower, 2.49%
- Ac-ELIKPMDDIYQRPVEFPNLP-NH2 [20 amino acid-long tridegin peptide SEQ ID NO.23] — higher, 24%
- Ac-AQDQYCAFIPQCRPRSELIK-NH2 (cysteine pairing not given here) [20 amino acid-long tridegin peptide SEQ ID NO.15] — lower, 3.32%
- Ac-QGIPNPRCWCGADLECAQDQ-NH2 (cysteine pairing not given here) [20 amino acid-long tridegin peptide SEQ ID NO.7] — higher, 13.7%
- Ac-WCGADLECAQDQYCAFEPQC-NH2 (cysteine pairing not given here) [20 amino acid-long tridegin peptide SEQ ID NO.11] — lower, 0.36%
- Ac-ECAQDQYCAFIPQCRPRSEL-NH2 (cysteine pairing not given here) [20 amino acid-long tridegin peptide SEQ ID NO.14] — higher, 6.3%
- Ac-AFIPQCRPRSELIKPMDDIY-NH2 [20 amino acid-long tridegin peptide SEQ ID NO.18] — higher, 13.3%
- Ac-WHQGIPNPRCWCGADLECAQ-NH2 (cysteine pairing not given here) [20 amino acid-long tridegin peptide SEQ ID NO.6] — higher, 9.8%
- Ac-RSELIKPMDDIYQRPVEFPN-NH2 [20 amino acid-long tridegin peptide SEQ ID NO.22] — higher, 8.64%
- Ac-PCKEWHQGIPNPRCWCGADL-NH2 (cysteine pairing not given here) [20 amino acid-long tridegin peptide SEQ ID NO.4] — higher, 9.8%
- Ac-RPRSELIKPMDDIYQRPVEF-NH2 [20 amino acid-long tridegin peptide SEQ ID NO.21] — higher, 19.4%
- Ac-DQYCAFIPQCRPRSELIKPM-NH2 (cysteine pairing not given here) [20 amino acid-long tridegin peptide SEQ ID NO.16] — higher, 14.8%
- Ac-IPQCRPRSELIKPMDDIYQR-NH2 [20 amino acid-long tridegin peptide SEQ ID NO.19] — lower, 0%
